Experimental data published in the supplement of paper PMC10126150.
± gives the standard deviation of the averaged measurements.

tested on: ATP; assay: switch fluorescence ratio, 500 uM ATP over buffer (Cy3 cluster intensity, sum of 5 cycles each) (fold (ratio)); higher = stronger signal-on switching upon ATP binding; sequences stand for … in TCGTCGGCAGCGTCAGATGTGTATAAGAGACAGTTTTTTTTTTTTTTTTTTTTTTTTT…TC; conditions: aptamer strand: ATP DNA aptamer (quencher-CACCTGGGGGAGTATTGCGGAGGAAGG + anchor), 100 nM annealed; ATP concentration: 500 uM
Procedure, shortened: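 For every switch-domain sequence, the fluorescence ratio is the mean of per-cluster values, each being summed target-cycle Cy3 intensity over summed buffer-cycle Cy3 intensity. Clusters outside 100-1000 RFU were excluded. On a modified Illumina MiSeq flow-cell, the Cy3-labelled switching-strand clusters were annealed to 100 nM quencher-labelled ATP aptamer, imaged in selection buffer and then after 15 min with 500 uM ATP at 22 °C. Five such cycles were run, with NaOH stripping and re-annealing between them.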
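Further: ATP exposure 15 min at 22 °C before imaging.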

Going from CTATTCTTGG to CTATTTAGAT, the switch fluorescence ratio rises from 0.9524 ± 0.006 to 0.984 ± 0.011.

Compared with CTATTTATCA, CTATTTGACT is lower in switch fluorescence ratio: 1.02 ± 0.053 for the first, 0.9576 ± 0.0028 for the second.

CTATTTTACT and CTATTTTATT are within error of each other in switch fluorescence ratio: 0.9873 ± 0.0073 for the first, 1.01 ± 0.068 for the second.

Going from CTATTTTGGG to CTCAACGTTC, the switch fluorescence ratio rises from 0.993 ± 0.026 to 1.088 ± 0.006.

CTCAATCTTG and CTCACGGGGC are within error of each other in switch fluorescence ratio: 0.971 ± 0.043 for the first, 1.16 ± 0.16 for the second.

CTCAGACGGA and CTCAGCCCGT are within error of each other in switch fluorescence ratio: 1 ± 0.043 for the first, 1.03 ± 0.095 for the second.

CTCAGGGGAG and CTCAGTATCT are within error of each other in switch fluorescence ratio: 1.03 ± 0.047 for the first, 0.972 ± 0.041 for the second.

CTCAGTTATG and CTCATAGACA are within error of each other in switch fluorescence ratio: 1.0176 ± 0.00079 for the first, 1.03 ± 0.08 for the second.

CTCATATTGT and CTCATCGGTT are the same in switch fluorescence ratio: 1.006 ± 0.0076 for the first, 1.007 ± 0.0011 for the second.

First: CTCATTGGCC
Second: CTCCATATTA
The switch fluorescence ratio of the first is lower: 0.983 ± 0.0025 for the first, 1.057 ± 0.0068 for the second.

CTCCCACACG and CTCCCCGGGT are within error of each other in switch fluorescence ratio: 2.35 ± 0.36 for the first, 3 ± 1.1 for the second.

Compared with CTCCGATGTG, CTCCTCGTCA is lower in switch fluorescence ratio: 1.57 ± 0.061 for the first, 1.17 ± 0.036 for the second.

Going from CTCCTTTATT to CTCGCATGCA, the switch fluorescence ratio rises from 1.04 ± 0.037 to 1.2 ± 0.035.

CTCGCGACGA and CTCGCGGCGG are within error of each other in switch fluorescence ratio: 1.06 ± 0.019 for the first, 1.03 ± 0.034 for the second.

CTCGCTCGGT and CTCGCTCGTT are within error of each other in switch fluorescence ratio: 1.01 ± 0.019 for the first, 1.03 ± 0.018 for the second.

First: CTCGGAACCT
Second: CTCGGAATGG
The switch fluorescence ratio of the first is higher: 1.84 ± 0.22 for the first, 1.08 ± 0.043 for the second.

CTCGGAATTT and CTCGGATAGC are within error of each other in switch fluorescence ratio: 1.04 ± 0.037 for the first, 1.02 ± 0.045 for the second.

CTCGGCGCGC and CTCGGCTTGT are within error of each other in switch fluorescence ratio: 1.024 ± 0.0044 for the first, 1.05 ± 0.044 for the second.

CTCGGGGGCT and CTCGGGTGGG are within error of each other in switch fluorescence ratio: 0.98 ± 0.027 for the first, 0.985 ± 0.037 for the second.

CTCGTATTTA and CTCGTCAGGG are within error of each other in switch fluorescence ratio: 0.976 ± 0.021 for the first, 0.995 ± 0.029 for the second.

Going from CTCGTCCGAC to CTCGTGGTTT, the switch fluorescence ratio falls from 1.53 ± 0.11 to 0.981 ± 0.024.

Compared with CTCGTTGAAA, CTCTAAAAAG is higher in switch fluorescence ratio: 0.9779 ± 0.0065 for the first, 1.06 ± 0.05 for the second.

Compared with CTCTAATATC, CTCTAATTTT is lower in switch fluorescence ratio: 1.47 ± 0.091 for the first, 1.013 ± 0.0052 for the second.

First: CTCTAGCCTC
Second: CTCTAGTGGC
The switch fluorescence ratio of the first is higher: 1.176 ± 0.0012 for the first, 1.1 ± 0.074 for the second.

Compared with CTCTCGACAC, CTCTGAAGCT is lower in switch fluorescence ratio: 1.69 ± 0.078 for the first, 1.06 ± 0.017 for the second.

CTCTGGACAG and CTCTGGATTT are within error of each other in switch fluorescence ratio: 0.9718 ± 0.0089 for the first, 0.97272 ± 0.00011 for the second.

CTCTGGGAGG and CTCTGGGGCG are within error of each other in switch fluorescence ratio: 0.995 ± 0.021 for the first, 1.01 ± 0.023 for the second.

CTCTGGGGTA and CTCTGGGGTC are the same in switch fluorescence ratio: 1.05 ± 0.031 for the first, 1.05 ± 0.048 for the second.

CTCTGGGTTG and CTCTTACTTT are within error of each other in switch fluorescence ratio: 1.07 ± 0.13 for the first, 0.9862 ± 0.0084 for the second.

CTCTTGTTTT and CTCTTTACGG are within error of each other in switch fluorescence ratio: 0.988 ± 0.018 for the first, 1 ± 0.04 for the second.

CTCTTTAGCG and CTCTTTCGAT are within error of each other in switch fluorescence ratio: 1.01 ± 0.025 for the first, 1.03 ± 0.03 for the second.

CTGAAAGGGC and CTGAAGGAGG are within error of each other in switch fluorescence ratio: 1.03 ± 0.066 for the first, 0.971 ± 0.037 for the second.

CTGAAGTTGT and CTGAATGGGG are within error of each other in switch fluorescence ratio: 1.01 ± 0.032 for the first, 0.971 ± 0.01 for the second.

Going from CTGACGGCTT to CTGAGAAGAG, the switch fluorescence ratio falls from 1.056 ± 0.0068 to 0.993 ± 0.041.

CTGAGATCAG and CTGAGCCGGA are within error of each other in switch fluorescence ratio: 1.01 ± 0.026 for the first, 1.08 ± 0.16 for the second.

Compared with CTGAGGAGAC, CTGAGGCTGG is lower in switch fluorescence ratio: 1.05 ± 0.042 for the first, 0.9933 ± 0.0021 for the second.

Going from CTGAGGGGAT to CTGAGGGGCT, the switch fluorescence ratio falls from 1.1 ± 0.047 to 0.982 ± 0.02.

CTGAGTGTGG and CTGAGTTTGA are within error of each other in switch fluorescence ratio: 0.989 ± 0.028 for the first, 1 ± 0.013 for the second.

First: CTGAGTTTGG
Second: CTGATAAAGT
The switch fluorescence ratio of the first is higher: 1.07 ± 0.061 for the first, 0.9922 ± 0.0082 for the second.

Going from CTGATCAATG to CTGATCAGCA, the switch fluorescence ratio falls from 1.1 ± 0.02 to 1.03 ± 0.04.

CTGATCAGTT and CTGATGCGCG are within error of each other in switch fluorescence ratio: 1.02 ± 0.017 for the first, 1 ± 0.016 for the second.

First: CTGATTATCT
Second: CTGCATGTGC
The switch fluorescence ratio of the first is lower: 0.989 ± 0.02 for the first, 2.14 ± 0.11 for the second.

CTGCGGATGG and CTGCGTAGGG are within error of each other in switch fluorescence ratio: 1.058 ± 0.0066 for the first, 1.04 ± 0.029 for the second.

First: CTGCGTCTAT
Second: CTGCTAGATG
The switch fluorescence ratio of the first is higher: 1.08 ± 0.025 for the first, 0.983 ± 0.051 for the second.

CTGCTAGCGG and CTGCTGAGGG are within error of each other in switch fluorescence ratio: 1.02 ± 0.065 for the first, 0.99 ± 0.013 for the second.

CTGCTTGTGA and CTGGAATTCA are the same in switch fluorescence ratio: 1.02 ± 0.026 for the first, 1.02 ± 0.049 for the second.

CTGGAGGTTG and CTGGCAGTGG are within error of each other in switch fluorescence ratio: 0.998 ± 0.041 for the first, 1.05 ± 0.054 for the second.

CTGGCATGGG and CTGGCGTATG are within error of each other in switch fluorescence ratio: 0.979 ± 0.014 for the first, 0.997 ± 0.036 for the second.

CTGGCTGGCA and CTGGGAAGAG are within error of each other in switch fluorescence ratio: 0.995 ± 0.01 for the first, 1.01 ± 0.028 for the second.

CTGGGACTTG and CTGGGAGATT are within error of each other in switch fluorescence ratio: 1 ± 0.013 for the first, 1.02 ± 0.039 for the second.

CTGGGAGGGA and CTGGGAGGTT are within error of each other in switch fluorescence ratio: 0.991 ± 0.035 for the first, 0.97 ± 0.05 for the second.

Going from CTGGGCACAT to CTGGGCGTGC, the switch fluorescence ratio falls from 1.05 ± 0.015 to 0.997 ± 0.03.

Compared with CTGGGGAGGT, CTGGGGATTT is higher in switch fluorescence ratio: 0.9946 ± 0.0044 for the first, 1.02 ± 0.013 for the second.

CTGGGGGAAG and CTGGGGGGGG are within error of each other in switch fluorescence ratio: 0.985 ± 0.034 for the first, 1 ± 0.038 for the second.

CTGGGGGTCA and CTGGGGGTGC are within error of each other in switch fluorescence ratio: 1.04 ± 0.026 for the first, 1.06 ± 0.017 for the second.

CTGGGGGTTC and CTGGGGTAGG are within error of each other in switch fluorescence ratio: 1.01 ± 0.018 for the first, 1.04 ± 0.018 for the second.

CTGGGGTTTT and CTGGGTAGGG are within error of each other in switch fluorescence ratio: 0.991 ± 0.032 for the first, 1.008 ± 0.01 for the second.

Compared with CTGGGTCTGA, CTGGGTGCAT is higher in switch fluorescence ratio: 1.02 ± 0.026 for the first, 1.14 ± 0.032 for the second.

CTGGGTGGCG and CTGGGTTAGG are within error of each other in switch fluorescence ratio: 1.01 ± 0.069 for the first, 0.973 ± 0.032 for the second.

CTGGGTTGCG and CTGGTAGAGG are within error of each other in switch fluorescence ratio: 0.958 ± 0.032 for the first, 0.979 ± 0.048 for the second.

CTGGTAGGGA and CTGGTATGGA are within error of each other in switch fluorescence ratio: 1.06 ± 0.044 for the first, 0.971 ± 0.065 for the second.

Going from CTGGTATGGG to CTGGTCCAGG, the switch fluorescence ratio rises from 1.01 ± 0.03 to 1.12 ± 0.034.

CTGGTCTTGC and CTGGTGTGGC are within error of each other in switch fluorescence ratio: 1.04 ± 0.035 for the first, 0.982 ± 0.028 for the second.

CTGGTTCTTT and CTGTAAATTT are within error of each other in switch fluorescence ratio: 0.9898 ± 0.0082 for the first, 0.991 ± 0.03 for the second.

First: CTGTAACGTT
Second: CTGTAAGGCG
The switch fluorescence ratio of the first is lower: 1.015 ± 0.0015 for the first, 1.05 ± 0.025 for the second.

CTGTAATTGG and CTGTACGGAT are within error of each other in switch fluorescence ratio: 1.006 ± 0.001 for the first, 1.95 ± 1.7 for the second.

Going from CTGTAGCTGG to CTGTAGGGTT, the switch fluorescence ratio falls from 1.53 ± 0.05 to 1.01 ± 0.034.

CTGTATTTCT and CTGTCTTGA are within error of each other in switch fluorescence ratio: 1.03 ± 0.021 for the first, 1 ± 0.038 for the second.

CTGTGAGGGC and CTGTGAGTTA are within error of each other in switch fluorescence ratio: 0.991 ± 0.037 for the first, 0.97 ± 0.038 for the second.

CTGTGCAGCG and CTGTGGAAAG are within error of each other in switch fluorescence ratio: 1.01 ± 0.019 for the first, 0.991 ± 0.018 for the second.

CTGTGGATGG and CTGTGGGAAG are within error of each other in switch fluorescence ratio: 1.01 ± 0.041 for the first, 0.995 ± 0.056 for the second.

CTGTGGTATT and CTGTGGTTGG are within error of each other in switch fluorescence ratio: 0.985 ± 0.018 for the first, 0.981 ± 0.011 for the second.

CTGTGTATGT and CTGTGTGATG are within error of each other in switch fluorescence ratio: 1.02 ± 0.061 for the first, 0.991 ± 0.017 for the second.

CTGTGTGCCT and CTGTGTTCTT are within error of each other in switch fluorescence ratio: 0.995 ± 0.07 for the first, 0.9864 ± 0.0065 for the second.

Compared with CTGTTAATAG, CTGTTAGTTG is lower in switch fluorescence ratio: 1.12 ± 0.027 for the first, 0.993 ± 0.019 for the second.

Compared with CTGTTATGTG, CTGTTCACGG is higher in switch fluorescence ratio: 0.952 ± 0.015 for the first, 1.017 ± 0.0092 for the second.

For CTGTTCCTTT, the switch fluorescence ratio was 1.056 ± 0.0014.
